Key:
Assay in all cases: two-hybrid library CCmax;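 also: natural log of median RNA to DNA barcode read ratio; higher means stronger binding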
4H2760-AA = biological target: T1, 4H2760-AA; conditions: mean of both orientations
T1 chain: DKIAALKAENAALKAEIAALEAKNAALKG

4H2604-AA = biological target: T2, 4H2604-AA; conditions: mean of both orientations
T2 chain: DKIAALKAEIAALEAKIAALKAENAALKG

P6-AA-1HAA-V = biological target: T3, P6-AA-1HAA-V; conditions: mean of both orientations
T3 chain: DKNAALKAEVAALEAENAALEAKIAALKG

P5-AA-1HAA-D = biological target: T4, P5-AA-1HAA-D; conditions: mean of both orientations
T4 chain: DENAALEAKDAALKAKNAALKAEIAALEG

P5-AA-12HGe-D = biological target: T5, P5-AA-12HGe-D; conditions: mean of both orientations
T5 chain: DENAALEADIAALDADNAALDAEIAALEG

P5-AA-1HGe-W = biological target: T6, P5-AA-1HGe-W; conditions: mean of both orientations
T6 chain: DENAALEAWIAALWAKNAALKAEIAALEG

P5-AA-1HAA-T = biological target: T7, P5-AA-1HAA-T
T7 chain: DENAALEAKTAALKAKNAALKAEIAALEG

P5-AA-1HAA-S = biological target: T8, P5-AA-1HAA-S; conditions: mean of both orientations
T8 chain: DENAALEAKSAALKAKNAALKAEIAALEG

P5-AA-1HAA-R = biological target: T9, P5-AA-1HAA-R; conditions: mean of both orientations
T9 chain: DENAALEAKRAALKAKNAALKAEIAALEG

P5-AA-1HAA-V = biological target: T10, P5-AA-1HAA-V; conditions: mean of both orientations
T10 chain: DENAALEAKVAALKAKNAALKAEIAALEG

P5-AA-1HAA-A = biological target: T11, P5-AA-1HAA-A; conditions: mean of both orientations
T11 chain: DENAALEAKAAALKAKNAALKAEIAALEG

P5-AA-1HGe-A = biological target: T12, P5-AA-1HGe-A; conditions: mean of both orientations
T12 chain: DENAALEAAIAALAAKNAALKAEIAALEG

P5-AA-1HGe-D = biological target: T13, P5-AA-1HGe-D; conditions: mean of both orientations
T13 chain: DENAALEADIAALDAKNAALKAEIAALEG

P5-AA-1HGe-R = biological target: T14, P5-AA-1HGe-R; conditions: mean of both orientations
T14 chain: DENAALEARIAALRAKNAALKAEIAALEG

P5-AA-12HGe-Y = biological target: T15, P5-AA-12HGe-Y; conditions: mean of both orientations
T15 chain: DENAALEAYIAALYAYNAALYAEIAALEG

APC9096-AA = biological target: T16, APC9096-AA; conditions: mean of both orientations
T16 chain: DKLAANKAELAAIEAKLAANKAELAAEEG

4H716-AA = biological target: T17, 4H716-AA; conditions: mean of both orientations
T17 chain: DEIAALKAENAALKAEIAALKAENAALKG

APC1015-AA = biological target: T18, APC1015-AA
T18 chain: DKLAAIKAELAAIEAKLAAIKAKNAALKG

APC9319-AA = biological target: T19, APC9319-AA; conditions: mean of both orientations
T19 chain: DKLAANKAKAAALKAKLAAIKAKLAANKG

P6-AA-12HAA-R = biological target: T20, P6-AA-12HAA-R; conditions: mean of both orientations
T20 chain: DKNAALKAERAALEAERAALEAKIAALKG

P6-AA-12HAA-Y = biological target: T21, P6-AA-12HAA-Y; conditions: mean of both orientations
T21 chain: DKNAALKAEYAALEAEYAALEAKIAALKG

P6-AA-12HAA-S = biological target: T22, P6-AA-12HAA-S; conditions: mean of both orientations
T22 chain: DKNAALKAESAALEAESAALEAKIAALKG

Core_NIIN-es_KEKK = biological target: T23, Core_NIIN-es_KEKK
T23 chain: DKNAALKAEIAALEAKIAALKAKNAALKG

4H1352-AA = biological target: T24, 4H1352-AA
T24 chain: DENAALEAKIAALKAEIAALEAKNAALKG

4H233-AA = biological target: T25, 4H233-AA; conditions: mean of both orientations
T25 chain: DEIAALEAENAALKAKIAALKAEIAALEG

4H2646-AA = biological target: T26, 4H2646-AA; conditions: mean of both orientations
T26 chain: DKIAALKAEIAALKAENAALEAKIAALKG

4H278-AA = biological target: T27, 4H278-AA; conditions: mean of both orientations
T27 chain: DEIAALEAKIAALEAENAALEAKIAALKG

4H816-AA = biological target: T28, 4H816-AA; conditions: mean of both orientations
T28 chain: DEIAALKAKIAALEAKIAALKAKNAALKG

4H369-AA = biological target: T29, 4H369-AA; conditions: mean of both orientations
T29 chain: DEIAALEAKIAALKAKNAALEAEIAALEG

4H2536-AA = biological target: T30, 4H2536-AA; conditions: mean of both orientations
T30 chain: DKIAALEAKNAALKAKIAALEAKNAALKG

4H481-AA = biological target: T31, 4H481-AA; conditions: mean of both orientations
T31 chain: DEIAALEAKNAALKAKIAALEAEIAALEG

O4-AA = biological target: T32, O4-AA; conditions: mean of both orientations
T32 chain: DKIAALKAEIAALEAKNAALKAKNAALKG

4H3029-AA = biological target: T33, 4H3029-AA; conditions: mean of both orientations
T33 chain: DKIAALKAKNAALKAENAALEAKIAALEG

4H3121-AA = biological target: T34, 4H3121-AA; conditions: mean of both orientations
T34 chain: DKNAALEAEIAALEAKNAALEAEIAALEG

4H2713-AA = biological target: T35, 4H2713-AA; conditions: mean of both orientations
T35 chain: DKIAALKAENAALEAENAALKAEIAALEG

4H1146-AA = biological target: T36, 4H1146-AA; conditions: mean of both orientations
T36 chain: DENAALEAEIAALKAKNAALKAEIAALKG

4H1639-AA = biological target: T37, 4H1639-AA; conditions: mean of both orientations
T37 chain: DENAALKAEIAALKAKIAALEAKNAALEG

4H1738-AA = biological target: T38, 4H1738-AA; conditions: mean of both orientations
T38 chain: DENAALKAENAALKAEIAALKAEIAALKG

4H3020-AA = biological target: T39, 4H3020-AA; conditions: mean of both orientations
T39 chain: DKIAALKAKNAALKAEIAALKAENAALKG

4H355-AA = biological target: T40, 4H355-AA; conditions: mean of both orientations
T40 chain: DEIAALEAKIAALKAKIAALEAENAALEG

4H3651-AA = biological target: T41, 4H3651-AA; conditions: mean of both orientations
T41 chain: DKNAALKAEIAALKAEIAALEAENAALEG

4H3705-AA = biological target: T42, 4H3705-AA; conditions: mean of both orientations
T42 chain: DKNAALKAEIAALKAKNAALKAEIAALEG

B1: 4H249-AA (peptide)
chain: DEIAALEAENAALKAKNAALKAEIAALEG
4H2760-AA
  interaction score: 1.68
4H2604-AA
  interaction score: -1.73

B2: 4H1401-AA (peptide)
chain: DENAALEAKIAALKAKNAALKAEIAALEG
P6-AA-1HAA-V
  interaction score: 2.18

B3: 4H3606-AA (peptide)
chain: DKNAALKAEIAALEAENAALEAKIAALKG
P5-AA-1HAA-D
  interaction score: 1.43
P5-AA-12HGe-D
  interaction score: -1.24
P5-AA-1HGe-W
  interaction score: 2.27
P5-AA-1HAA-T
  interaction score: 1.75
P5-AA-1HAA-S
  interaction score: 1.63
P5-AA-1HAA-R
  interaction score: 2
P5-AA-1HAA-V
  interaction score: 2.23
P5-AA-1HAA-A
  interaction score: 2.07
P5-AA-1HGe-A
  interaction score: 2.06
P5-AA-1HGe-D
  interaction score: 1.14
P5-AA-1HGe-R
  interaction score: 2.23
P5-AA-12HGe-Y
  interaction score: 2.52

B4: 4H1845-AA (peptide)
chain: DENAALKAKIAALEAKNAALEAKIAALEG
APC9096-AA
  interaction score: -2.08
4H716-AA
  interaction score: -1.81
APC1015-AA
  interaction score: -1.28
APC9319-AA
  interaction score: -1.55

B5: 4H1385-AA (peptide)
chain: DENAALEAKIAALKAKIAALKAEIAALEG
P6-AA-12HAA-R
  interaction score: 1.72
P6-AA-12HAA-Y
  interaction score: 2.29
P6-AA-12HAA-S
  interaction score: 1.43

B6: 4H1153-AA (peptide)
chain: DENAALEAENAALEAEIAALEAEIAALEG
Core_NIIN-es_KEKK
  interaction score: 1.86
4H1352-AA
  interaction score: 0

B7: 4H1350-AA (peptide)
chain: DENAALEAKIAALKAEIAALEAKIAALKG
4H233-AA
  interaction score: 0.257
4H2646-AA
  interaction score: -0.455
4H278-AA
  interaction score: 0.443
4H816-AA
  interaction score: 1.16
4H369-AA
  interaction score: 0.227
4H2536-AA
  interaction score: -0.188
4H481-AA
  interaction score: 0.532

B8: 4H171-AA (peptide)
chain: DEIAALEAENAALEAKIAALKAENAALEG
O4-AA
  interaction score: -0.185

B9: 4H1064-AA (peptide)
chain: DENAALEAEIAALEAKIAALEAKNAALKG
4H3029-AA
  interaction score: -1.16
4H3121-AA
  interaction score: -1.6
4H2713-AA
  interaction score: -1.48
4H1146-AA
  interaction score: -0.282

B10: 4H1626-AA (peptide)
chain: DENAALKAEIAALKAENAALKAEIAALKG
4H1639-AA
  interaction score: -1.38
4H1738-AA
  interaction score: -0.841

B11: 4H1257-AA (peptide)
chain: DENAALEAENAALKAKIAALKAEIAALEG
4H3020-AA
  interaction score: -1.1
4H355-AA
  interaction score: -1.88
4H3651-AA
  interaction score: -1.01
4H3705-AA
  interaction score: -1.52
